Assay results reported in publication PMC4116228.

Columns and labels:
[1] = target: Active MMP-2; experiment: enzyme inhibition (fluorogenic substrate, Ki by the Morrison equation); Active MMP-2 (0.76 nM) with FLAG-TIMP-1 or FLAG-T2G (0.17 to 13.5 nM), 2 h at 27 C; 50 mM Tris-HCl pH 7.5, 150 mM NaCl, 5 mM CaCl2; substrate MCA-Pro-Leu-Gly-Leu-Dpa-Ala-Arg-NH2
[2] = target: Endogenous LRP-1 of mouse cortical neurons (alpha-chain and beta-chain) (mouse (endogenous in primary cortical neurons))
[3] = target: HA-tagged mini LRP-IV (LRP-1 mini-receptor with ligand-binding domain IV)
[4] = target: HA-tagged mini LRP-II (LRP-1 mini-receptor with ligand-binding domain II)
[5] = target: Endogenous LRP-1 of mouse cortical neurons (alpha-chain and beta-chain) (mouse (endogenous in primary cortical neurons)); remark: listed apart in the source
[6] = target: Recombinant human LRP-1 Fc-tagged mini-domain II (human); experiment: SPR; Fc-DII or Fc-DIV captured by anti-Fc antibody immobilised on a CMD500m chip (around 8 fmol/mm^2); TIMP-1 or EGF 5 to 80 nM injected sequentially (single-cycle kinetics, 2 min at 50 ul/min); 25 C; HBS (50 mM HEPES-NaOH pH 7.4, 150 mM NaCl, 0.005% Tween-20); corrected for Fc-coated flow cell and blank run; 1:1 titration kinetic model; Biacore T200
[7] = target: Recombinant human LRP-1 Fc-tagged mini-domain IV (human); experiment: as above

With “FLAG-tagged full-length TIMP-1 T2G mutant (from UniProt P01033 24-207) (natural protein)” the Ki [1] was 18.9 nM.
For “FLAG-tagged wild type TIMP-1 (from UniProt P01033 24-207) (natural protein)”, the growth cone volume of cortical neurons after 30 min with 10 nM TIMP-1; the increase is prevented by RAP or blocking LRP-1 antibodies [2] was 2.8 fold and the Ki [1] was 0.09 nM.
“Fluorescent TIMP-1 (eFluor-conjugated recombinant TIMP-1) (from UniProt P01033 24-207) (natural protein)” was tested, and the internalisation of surface-bound fluo-TIMP-1 (10 nM) by DIV-overexpressing CHO cells after 2 h at 37 C (pronase-resistant fluorescence); significantly impeded by 500 nM RAP [3] was 50%, the internalisation of surface-bound fluo-TIMP-1 (10 nM) by DII-overexpressing CHO cells after 2 h at 37 C (pronase-resistant fluorescence); significantly impeded by 500 nM RAP [4] was 50% and the inhibition by 500 nM RAP of the internalisation of fluo-TIMP-1 by cortical neurons (37 C, pronase-resistant fluorescence) [5] was 2 fold.
“Human recombinant TIMP-1 (tissue inhibitor of metalloproteinases-1) (from UniProt P01033 24-207) (natural protein)” showed a Kd [6] of 11.2 nM, a koff [6] of 0.021 s⁻¹ and a kon [6] of 1.87e+06 M⁻¹ s⁻¹. The Kd [7] was 52.4 nM, the koff [7] was 0.0135 s⁻¹ and the kon [7] was 255000 M⁻¹ s⁻¹.
